Consider 7 molecules from patent publication US20210388081A1 (Memorial Sloan Kettering, published 2021).

In assay [1] the target is T1, FcRL2, overexpressed on 3T3 cells (UniProt Q96LA5 20-508, limits assumed).
T1 construct: whole, on cells
T1 sequence (looked up): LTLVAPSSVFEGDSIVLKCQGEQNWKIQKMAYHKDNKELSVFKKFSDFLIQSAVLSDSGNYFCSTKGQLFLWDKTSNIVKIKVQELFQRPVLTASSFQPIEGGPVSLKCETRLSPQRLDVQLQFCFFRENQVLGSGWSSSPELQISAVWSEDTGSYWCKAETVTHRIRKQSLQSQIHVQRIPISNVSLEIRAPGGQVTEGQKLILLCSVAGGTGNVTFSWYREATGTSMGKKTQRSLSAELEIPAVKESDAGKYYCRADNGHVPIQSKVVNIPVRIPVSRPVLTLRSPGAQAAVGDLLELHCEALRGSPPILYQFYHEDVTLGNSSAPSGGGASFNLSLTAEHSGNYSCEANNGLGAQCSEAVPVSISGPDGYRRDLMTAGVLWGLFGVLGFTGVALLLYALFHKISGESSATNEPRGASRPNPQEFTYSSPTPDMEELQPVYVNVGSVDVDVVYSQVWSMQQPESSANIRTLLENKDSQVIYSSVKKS
Briefly: phage clone on 3T3-FcRL2 cells.

The target of assay [2] is T2, Fc Receptor-like 5 (FcRL5), full length, overexpressed on 3T3 or Raji cells (human, UniProt Q96RD9 16-977).
T2 construct: also called 3T3-FcRL5
T2 sequence: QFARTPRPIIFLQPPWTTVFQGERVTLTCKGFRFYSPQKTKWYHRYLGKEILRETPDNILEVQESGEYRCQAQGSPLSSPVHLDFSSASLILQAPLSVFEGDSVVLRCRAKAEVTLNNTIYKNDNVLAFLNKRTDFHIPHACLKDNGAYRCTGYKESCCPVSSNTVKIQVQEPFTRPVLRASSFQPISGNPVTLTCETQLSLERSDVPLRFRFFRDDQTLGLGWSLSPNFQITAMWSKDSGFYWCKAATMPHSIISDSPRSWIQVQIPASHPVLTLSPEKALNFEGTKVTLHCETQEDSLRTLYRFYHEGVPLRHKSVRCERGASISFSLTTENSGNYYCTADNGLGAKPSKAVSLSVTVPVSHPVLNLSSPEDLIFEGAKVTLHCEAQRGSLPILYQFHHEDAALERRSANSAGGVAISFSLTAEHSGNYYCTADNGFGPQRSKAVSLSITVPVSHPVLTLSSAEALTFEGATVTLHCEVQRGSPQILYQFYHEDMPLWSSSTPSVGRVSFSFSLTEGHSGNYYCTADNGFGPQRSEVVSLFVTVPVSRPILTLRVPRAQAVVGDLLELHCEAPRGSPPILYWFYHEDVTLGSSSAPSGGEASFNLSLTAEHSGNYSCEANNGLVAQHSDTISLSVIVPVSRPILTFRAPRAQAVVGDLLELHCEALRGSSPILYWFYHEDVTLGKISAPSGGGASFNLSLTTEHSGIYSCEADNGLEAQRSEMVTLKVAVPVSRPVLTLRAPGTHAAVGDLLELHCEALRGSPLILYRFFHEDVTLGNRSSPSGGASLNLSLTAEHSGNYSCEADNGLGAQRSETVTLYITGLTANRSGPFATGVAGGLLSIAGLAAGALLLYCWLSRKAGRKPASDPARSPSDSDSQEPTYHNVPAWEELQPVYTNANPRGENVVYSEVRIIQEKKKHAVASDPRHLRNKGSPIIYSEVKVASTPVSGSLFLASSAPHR
Kind of assay: phage clone screening on cells. On the procedure:
Once selected, positive scFv clones are further tested for their binding to FcRL5 (e.g., human FcRL5) on live 3T3 cell surfaces by flow cytometry. Briefly, phage clones are incubated with 3T3 cells over-expressing FcRL5. The cells are washed and then incubated with a mouse anti-M13 coat protein mAb. Cells are washed again and labeled with a PE-horse anti-mouse Ig prior to flow cytometry.
Phage′ display against FcRL5 was performed to enrich for scFv phage clones that bind to FcRL5 specifically. Screening was carried out on FcRL5 overexpressing 3T3 cells or 3T3 cells expressing FcRL1, 2, 3, 4 or 6 as a negative control (FIG. 2).

Assay [3] concerns the target SLAMF9 protein (UniProt Q96A28 19-236, limits assumed). Briefly: phage clone on SLAMF9 protein.
Assay [4] addresses T3, FcRL3, overexpressed on 3T3 cells (UniProt Q96P31 18-734, limits assumed).
T3 construct: whole, on cells
T3 sequence (looked up): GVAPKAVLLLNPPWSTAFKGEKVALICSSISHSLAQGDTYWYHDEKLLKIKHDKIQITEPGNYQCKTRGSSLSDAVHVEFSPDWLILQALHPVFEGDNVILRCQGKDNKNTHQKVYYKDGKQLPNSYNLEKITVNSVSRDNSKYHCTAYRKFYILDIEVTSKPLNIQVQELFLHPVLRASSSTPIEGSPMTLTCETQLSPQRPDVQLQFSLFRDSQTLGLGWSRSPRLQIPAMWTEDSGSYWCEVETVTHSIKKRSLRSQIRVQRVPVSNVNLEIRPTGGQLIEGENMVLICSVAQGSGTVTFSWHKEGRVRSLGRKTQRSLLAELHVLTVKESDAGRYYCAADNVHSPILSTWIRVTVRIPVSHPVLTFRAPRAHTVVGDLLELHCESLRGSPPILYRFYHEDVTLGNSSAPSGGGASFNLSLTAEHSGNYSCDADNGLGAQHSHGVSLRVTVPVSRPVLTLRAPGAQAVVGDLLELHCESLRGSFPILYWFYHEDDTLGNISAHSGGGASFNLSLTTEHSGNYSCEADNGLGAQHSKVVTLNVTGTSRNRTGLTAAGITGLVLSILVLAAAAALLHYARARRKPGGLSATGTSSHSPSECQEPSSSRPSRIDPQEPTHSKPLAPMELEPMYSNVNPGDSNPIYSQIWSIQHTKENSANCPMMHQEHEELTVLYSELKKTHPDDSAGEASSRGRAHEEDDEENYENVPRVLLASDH
Kind of assay: phage clone on 3T3-FcRL3 cells.

The target of assay [5] is T4, FcRL6, overexpressed on 3T3 cells (UniProt Q6DN72 20-434, limits assumed).
T4 construct: whole, on cells
T4 sequence (looked up): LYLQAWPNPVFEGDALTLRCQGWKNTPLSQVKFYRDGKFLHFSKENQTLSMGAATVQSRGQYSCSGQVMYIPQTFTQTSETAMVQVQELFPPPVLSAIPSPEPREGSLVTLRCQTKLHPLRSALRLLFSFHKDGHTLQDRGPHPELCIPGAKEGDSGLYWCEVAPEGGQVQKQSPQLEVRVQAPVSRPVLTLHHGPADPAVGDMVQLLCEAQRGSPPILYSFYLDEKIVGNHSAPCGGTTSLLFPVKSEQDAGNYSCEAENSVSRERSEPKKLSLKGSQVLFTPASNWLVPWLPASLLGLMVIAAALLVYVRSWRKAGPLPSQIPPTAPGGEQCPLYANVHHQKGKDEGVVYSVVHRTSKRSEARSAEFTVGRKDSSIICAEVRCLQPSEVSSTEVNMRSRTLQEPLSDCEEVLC
Kind of assay: phage clone on 3T3-FcRL6 cells.

Sequence of SLAMF9 protein (Q96A28 19-236 limits assumed): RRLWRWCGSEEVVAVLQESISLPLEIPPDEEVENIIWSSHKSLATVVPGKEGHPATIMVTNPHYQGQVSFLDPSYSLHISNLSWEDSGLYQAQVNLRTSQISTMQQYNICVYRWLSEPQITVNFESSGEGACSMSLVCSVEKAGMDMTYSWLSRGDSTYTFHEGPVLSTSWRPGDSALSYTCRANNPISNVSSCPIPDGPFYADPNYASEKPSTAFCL

B1: ET200-039 (scFv)
scFv: NFMLTQPHSVSESPGKTVTISCTRSSGSIASNYVQWYQQRPGSSPTTVIYEDNQRPSGVPDRFSGSIDSSSNSASLTISGLKTEDEADYYCQSYDSSNWVFGGGTKLTVLGSRGGGGSGGGGSGGGGSLEMAEVQLVQSGAEVKKPGSSVKVSCKASGGTFSSYAISWVRQAPGQGLEWMGGIIPIFGTANYAQKFQGRVTITADESTSTAYMELSSLRSEDTAVYYCARSNYYYNDYWGQGTLVTVSSTSGQAGQHHHHHHGAYPYDVPDYAS
notes: screened as phage clone; entry is VL-linker-VH-His tag-HA tag; also called ET200-39
As for B1, the binding result in assay [1] is “no binding”; in assay [2], “binds”; in assay [3], “no binding”; in assay [4], “no binding”; in assay [5], “no binding”.

B2: ET200-020 (scFv)
scFv: QSVVTQPPSVSAAPGQKVTISCSGSTSNIGNNDVSWYQQLPGTAPKLLIYDNNKRPSGIPDRFSGSKSGTSATLGITGLQTGDEADYYCGTWDSSVSASWVFGRGTKLTVLGSRGGGGSGGGGSGGGGSLEMAQVQLVQSGAEVKKPGASVKVSCKASGYTFTSYGISWVRQAPGQGLEWMGWISAYNGNTNYPQKLQGRVTMTTDPSTSTAYMELRSLRSDDTAVYYCARSMTSFDYWGQGTLVTVSSTSGQAGQHHHHHHGAYPYDVPDYAS
notes: screened as phage clone; entry is VL-linker-VH-His tag-HA tag
With B2, the binding result in assay [1] was “no binding”; in assay [2], “binds”; in assay [3], “no binding”; in assay [4], “no binding”; in assay [5], “no binding”.

B3: ET200-022 (scFv)
scFv: QSVVTQPPSVSAAPGQKVTISCSGSSSNIGNNYVSWYQQLPGTAPKLLIYDNNKRPSGIPDRFSGSKSGTSATLGITGLQTGDEADYYCGTWDSSLGAPYVFGTGTKVTVLGSRGGGGSGGGGSGGGGSLEMAEVQLVQSWGGSEQPGRSLRLSCAASGFTFDDYAMHWVRQAPGKGLEWVSGISWNSGSIGYADSVKGRFTISRDNAKNSLYLQMNSLRAEDTAMYYCARYRQVGSAYDSWGQGTLVTVSSTSGQAGQHHHHHHGAYPYDVPDYAS
notes: as for B2
With B3, the binding result was “no binding” in assay [1]; “binds” in assay [2]; “no binding” in assay [3]; “no binding” in assay [4]; “no binding” in assay [5].

B4: ET200-021 (scFv)
scFv: QSVLTQPPSVSAAPGQKVTISCSGSNSNIGNNYVSWYQQLPGTAPKLLIYDNNKRPSGIPDRFSGSRSGTSATLGITGLQTGDEADYYCGTWNTTVTPGYVFGTGTKVTVLGSRGGGGSGGGGSGGGGSLEMAEVQLVQSGAEVKKPGASVKVSCKASGYTFTSYGISWVRQAPGQGLEWMGWISAYNGNTNYAQKLQGRVTMTTDTSTSTAYMELRSLRSDDTAMYYCARSVYDLDTWGQGTLVTVSSTSGQAGQHHHHHHGAYPYDVPDYAS
notes: as for B2
As to B4, the binding result in assay [1] is “no binding”; in assay [2], “binds”; in assay [3], “no binding”; in assay [4], “no binding”; in assay [5], “no binding”.

B5: ET200-023 (scFv)
scFv: LPVLTQPPSVSVAPGKTARITCGGNNIGSKSVHWYQQKPGQAPVLVVYADSDRPSGIPERFSGSNSGNTATLTISRVEAGDEADYYCQVWDSSSYHNYVFGTGTKVTVLGSRGGGGSGGGGSGGGGSLEMAEVQLVQSGAEVKKPGASVKVSCKASGYTFTSYGISWVRQAPGQGLEWMGWISAYNGNTNYAQKLQGRVTMTTDTSTSTAYMELSSLRSEDTAMYYCARYWGFGVSDRWGQGTLVTVSSTSGQAGQHHHHHHGAYPYDVPDYAS
notes: as for B2
As for B5, the binding result is “no binding” in assay [1]; “binds” in assay [2]; “no binding” in assay [3]; “no binding” in assay [4]; “no binding” in assay [5].

B6: ET200-018 (scFv)
scFv: QAVLTQPPSTSGTPGQRVTISCSGSSSNIGRNGVNWYQQLPGAAPKVLIYNDNQRPSGVPDRVSGSQSGSSGTLAIDGLRSEDEADYYCAAWDDSLHGVVFGGGTKLTVLGSRGGGGSGGGGSGGGGSLEMAQVQLVQSGAEVKKPGASVKVSCKVSGYTLNELSMHWVRQAPGKGLEWMGGFDPEDGETIYAQKFQGRVTMTEDTSTDTAYMELSSLRSEDTAVYYCARGGYGDSWGQGTLVTVSSTSGQAGQHHHHHHGAYPYDVPDYAS
notes: as for B2
As to B6, the binding result is reported as “no binding” in assay [1]; “binds” in assay [2]; “no binding” in assay [3]; “no binding” in assay [4]; “no binding” in assay [5].

B7: ET200-019 (scFv)
scFv: NFMLTQPHSVSESPGKTVTISCTRSSGSIASNYVQWYQQRPGSAPTTVIYEDNQRPSGVPDRFSGSIDSSSNSASLTISGLKTEDEADYYCQSYDSSNSWVFGGGTKLTVLGSRGGGGSGGGGSGGGGSLEMAQVQLVQSGAEVKRPGSSVKVSCTASGGTFSSDAISWVRQAPGQGLEWMGGIIPMFGTANYAQKFQGRVTITADESTSTAYMELSSLRSEDTAVYYCAREGYYYPSAYLGSVLNDISSVYDEWGQGTLVTVSSTSGQAGQHHHHHHGAYPYDVPDYAS
notes: as for B2
Consider B7, for which the binding result in assay [1] is on record as “no binding”; in assay [2], “binds”; in assay [3], “no binding”; in assay [4], “no binding”; in assay [5], “no binding”.
